The results in this text go back to patent US20210061911A1.

A word on the Kd: it is a measure of binding affinity in units of concentration. Low readings indicate a tighter complex, high ones a looser complex. The term koff denotes the rate constant with which the complex falls apart. Low values mean slow dissociation, high ones fast dissociation. What is called kon is the second-order rate constant of association. High values mean fast association, low ones slow association.

Assay [1] deals with Human CD3ε/δ (human) (UniProt P07766). The assay can be described thus: kinetic binding analysis, method not given.
The target of assay [2] is Cynomolgus CD3ε/δ (cynomolgus monkey) (UniProt Q95LI5). Kind of assay: kinetic binding analysis, method not given.
Sequence of Cynomolgus CD3ε/δ (cynomolgus monkey) (Q95LI5 22-117, stated change not applied, chain 1 of 2): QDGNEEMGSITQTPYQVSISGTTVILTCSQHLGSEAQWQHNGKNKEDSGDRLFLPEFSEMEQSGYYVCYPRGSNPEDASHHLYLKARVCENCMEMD
Sequence of Cynomolgus CD3ε/δ (cynomolgus monkey) (Q95LI8 22-105, stated change not applied, chain 2 of 2, further chain): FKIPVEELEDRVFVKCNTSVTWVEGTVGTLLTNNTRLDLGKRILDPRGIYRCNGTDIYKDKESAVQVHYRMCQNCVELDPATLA

Sequence of Human CD3ε/δ (human) (P07766 23-126, stated change not applied, chain 1 of 2): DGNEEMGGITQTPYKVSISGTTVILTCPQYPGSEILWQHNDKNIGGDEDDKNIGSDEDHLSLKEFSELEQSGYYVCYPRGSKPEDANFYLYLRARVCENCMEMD
Sequence of Human CD3ε/δ (human) (P04234 22-105, stated change not applied, chain 2 of 2, further chain): as the sequence (Q95LI8 22-105, stated change not applied, chain 2 of 2, further chain) above, with V5I, K15N, V20I, T32S, N33D, N34I, A64T, N74S, L83V counted along it

B1: DART-A, sequence-optimized CD123×CD3 bi-specific monovalent diabody (bispecific antibody)
chain 1: QAVVTQEPSLTVSPGGTVTLTCRSSTGAVTTSNYANWVQQKPGQAPRGLIGGTNKRAPWTPARFSGSLLGGKAALTITGAQAEDEADYYCALWYSNLWVFGGGTKLTVLGGGGSGGGGEVQLVQSGAELKKPGASVKVSCKASGYTFTDYYMKWVRQAPGQGLEWIGDIIPSNGATFYNQKFKGRVTITVDKSTSTAYMELSSLRSEDTAVYYCARSHLLRASWFAYWGQGTLVTVSSGGCGGGEVAALEKEVAALEKEVAALEKEVAALEK
chain 2: DFVMTQSPDSLAVSLGERVTMSCKSSQSLLNSGNQKNYLTWYQQKPGQPPKLLIYWASTRESGVPDRFSGSGSGTDFTLTISSLQAEDVAVYYCQNDYSYPYTFGQGTKLEIKGGGSGGGGEVQLVESGGGLVQPGGSLRLSCAASGFTFSTYAMNWVRQAPGKGLEWVGRIRSKYNNYATYYADSVKDRFTISRDDSKNSLYLQMNSLKTEDTAVYYCVRHGNFGNSYVSWFAYWGQGTLVTVSSGGCGGGKVAALKEKVAALKEKVAALKEKVAALKE
With B1, in assay [1], the Kd worked out at 9 nM, the koff worked out at 0.005 s⁻¹ and the kon turned out to be 570000 M⁻¹ s⁻¹. In assay [2], the Kd was determined as 9.2 nM, the koff was 0.005 s⁻¹ and the kon came out at 550000 M⁻¹ s⁻¹.
